The text below walks through data of patent US20130287807A1, “COMPOUNDS FOR TREATING SYMPTOMS ASSOCIATED WITH PARKINSON'S DISEASE” (priority 2008, published 2013).

By IC50 is commonly meant the concentration needed to halve the response being measured.

Experiment [1] relates to monoclonal antibody MV-003. Kind of experiment: In vitro inhibition assay (ELISA), MV-003 binding to original epitope. Set-up: species or system BalbC mice. The note with it: Table 2A; OD at 10 ug peptide compared to original peptide. As to the method:
Different amounts of peptides (concentrations ranging from 10 μg to 0.08 μg; serial dilutions; for MV-002: concentrations ranging from 5 μg to 0.03 μg; serial dilutions), derived from Phage Display were incubated with the monoclonal antibody that was used for the screening procedure. Peptides diminishing subsequent binding of the antibody to the original epitope coated on ELISA plates were considered as inhibiting in this assay.
Legend to Table 2A: the inhibition capacity is coded by the following code: Weak inhibition means more peptide is required to lower AB binding than with the original epitope; strong inhibition means similar peptide amounts are required for mimotope and original epitope for lowering AB binding. Mimotopes are compared to the original peptide as standard. OD at 10 ug peptide used in the assay is used to calculate the competition capacity compared to original peptide.
On the technique in general: An ELISA detects its analyte on a solid surface through an enzyme-linked reagent.

The test system of experiment [2] is Aβ/truncated/modified forms. In words: In vivo characterisation of mimotopes: detection of Aβ/truncated/modified forms. On the set-up: species or system C57/B16 mice; key: +: All peptides listed in Table 5 mount specific immune reactions against full length and/or truncated and modified forms of Aβ or fragments thereof. To be noted: Table 5, MV-003 derived mimotopes. As to the method: Inhibiting as well as non-inhibiting peptides were coupled to KLH and injected into mice (wildtype C57/B16 mice; subcutaneous injection into the flank) together with an appropriate adjuvant (aluminium hydroxide). Animals were vaccinated 3-6 times in biweekly intervals and sera were taken biweekly as well. Titers to injected peptides, as well as to an irrelevant peptide were determined with every serum. Furthermore, titers against the recombinant human Aβ protein, and against original peptides were determined respectively. In general sera were analysed by reaction against peptides coupled to Bovine Serum Albumin (BSA) and recombinant full length proteins which were immobilised on ELISA plates. Titers were determined using anti mouse IgG specific antibodies. For detailed results see FIGS. 15, 16 and 17 respectively and FIGS. 23, 24 and 25 respectively.
(§1) Female C57/b16 mice, 5-6 mice per group, were subcutaneously immunized with 30 μg peptide coupled to KLH. Control groups were administered original epitope-KLH conjugates respectively. As adjuvant alum was used (always 1 mg per mouse). […] The in vitro ELISA assay to determine the antibody titer was performed with sera of single mice after each vaccination in a two week interval (see FIGS. 15 and 16 respectively). The wells of the ELISA plate were coated with mimotope-BSA conjugate and an irrelevant peptide-BSA conjugate (negative control). The positive control was performed by reaction of the parental antibody with the respective mimotope-BSA conjugate. The detection was performed with anti-mouse IgG. Additionally, recombinant proteins were immobilised on ELISA plates and sera reacted accordingly. FIGS. 15 to 17 show representative examples for assays used to characterise mimotopes in vivo.
as §1, with “FIGS. 25” for “FIGS. 15”, “and 26” for “and 16”, “respectively). Titers were calculated as OD max/2 in all figures shown.” for “respectively).”, “FIGS. 23, 24 and 25” for “FIGS. 15 to 17”

Experiment [3] deals with monoclonal antibody MV-003. In words: In vitro binding assay (ELISA), BSA-coupled peptides, parental antibody MV-003. Set-up: species or system BalbC mice. To be noted: Table 1A; peptide-BSA on plate, compared to original epitope. Here is the method:
Peptides derived from Phage Display as well as variants thereof were coupled to BSA and bound to ELISA plates (1 μM; as indicated in the respective figures) and subsequently incubated with the monoclonal antibody that was used for the screening procedure to analyse binding capacity of identified peptides.
Legend to Table 1A: the binding capacity is coded by the following binding code: 1:X describes the dilution factor of the parental AB.

For experiment [4], the target named is DAEFRH-peptide-specific monoclonal antibody (Example 1). Kind of experiment: inhibition ELISA, competitor plate-bound DAEFRH-C-BSA; inhibitory capacity.
The target is the same in experiment [5]. In words: inhibition ELISA, competitor plate-bound DAEFRH-C-BSA.
The target in experiment [6] is monoclonal antibody MV-004. Kind of experiment: inhibition ELISA, competitor coated original epitope p4372; code 1 = weaker than original epitope.
The target in experiment [7] is monoclonal antibody MV-004. In words: inhibition ELISA, competitor coated original epitope p4372; code 2 = strong inhibition (as original epitope).
The target in experiment [8] is monoclonal antibody MV-001. In words: inhibition ELISA, competitor coated original epitope p4371; code 2 = strong inhibition (as original epitope).
In experiment [9] the target is monoclonal antibody MV-001. In words: ELISA on peptide-BSA; code 3 = strong binding, OD halfmax 1:>20000.
In experiment [10] the target is monoclonal antibody MV-003. In words: ELISA on peptide-BSA; code 1 = weak binding, OD halfmax 1:<16000.
In experiment [11] the target is monoclonal antibody MV-004. Kind of experiment: ELISA on peptide-BSA; code 1 = weak binding, OD halfmax 1:<24000.
Experiment [12] concerns the target monoclonal antibody MV-003. In words: inhibition ELISA, competitor coated original epitope p4373; code 1 = weaker than original epitope.
Experiment [13] concerns the target monoclonal antibody MV-004. In words: ELISA on peptide-BSA; code 3 = strong binding, OD halfmax 1:>96000.
In experiment [14] the target is monoclonal antibody MV-003. Kind of experiment: ELISA on peptide-BSA; code 3 = strong binding, OD halfmax 1:>60000.

In the case of IRYDAPLC [p4397], the “Inhibition Capacity” value in experiment [1] is 1 (Weaker than original epitope (OD of 10 ug peptide below 12 times of original peptide)). Also, the “Detection of Aβ/truncated/modified forms” value in experiment [2] is on record as “+”. Further, the “Binding Capacity” value in experiment [3] is 1 (weak binding :<16000).
Turning to IRYDMAGC [p4399], the “Detection of Aβ/truncated/modified forms” value in experiment [2] is “+”. Also, in experiment [3], the “Binding Capacity” value is 1 (weak binding :<16000).
In the case of VRWDVYPC [p4396], in [2], the “Detection of Aβ/truncated/modified forms” value is “+”. Further, the “Binding Capacity” value in [3] is 1 (weak binding :<16000).
Turning to IRWDGC [p4792], the “Inhibition Capacity” value in [1] was 1 (Weaker than original epitope (OD of 10 ug peptide below 12 times of original peptide)). The “Binding Capacity” value in [3] is reported as 1 (weak binding :<16000).
As to EAEFRGC [Peptide 3006], the IC50 in experiment [4] and in experiment [5] was less than 0.5 µg/mL in each case.
In the case of ELWHRYPC [p4420], in [6], the OD at 10 ug peptide as multiple of OD with original peptide was 2 to 5 fold.
For DWELRIC [Peptide 3002], the IC50 in experiment [4] and in experiment [5] was more than 0.5 µg/mL throughout.
Consider ELWHRAFC [p4665], for which the OD at 10 ug peptide as multiple of OD with original peptide in [7] was less than 2 fold.
TEFRHKAC [p4753] showed an OD at 10 ug peptide relative to OD of original peptide (inhibition ELISA) in experiment [8] of less than 2 fold. The OD halfmax 1:X (dilution factor of the parental antibody at half-maximal OD) (dilutionfactor(1:x)) in [9] is more than 20000.
With DKELRIC [Peptide 3001], the IC50 in experiment [4] and in experiment [5] was less than 0.5 µg/mL throughout.
Take VRWDVYPC [p4396]: in [10], the dilution factor of the parental antibody at OD halfmax (1:X) (dilutionfactor(1:x)) was less than 16000.
For the molecule EVWHRGC [p4788], the OD at 10 ug peptide as multiple of OD with original peptide in [6] lay in the range of 2 to 5 fold. Moreover, the OD halfmax 1:X (dilution factor of the parental antibody at half-maximal OD) (dilutionfactor(1:x)) in [11] was less than 24000.
In the case of IRWDGC [p4792], in [10], the dilution factor of the parental antibody at OD halfmax (1:X) (dilutionfactor(1:x)) is less than 16000. The molecule further showed an OD at 10 ug peptide relative to OD of original peptide (inhibition ELISA) in [12] of 5 to 12 fold.
In the case of ELWHRAC [p4786], the OD at 10 ug peptide as multiple of OD with original peptide in experiment [6] fell in the range of 2 to 5 fold. Besides, the OD halfmax 1:X (dilution factor of the parental antibody at half-maximal OD) (dilutionfactor(1:x)) in experiment [11] was less than 24000.
Consider IRWDTPC [p4395], for which the OD at 10 ug peptide relative to OD of original peptide (inhibition ELISA) in [12] lay in the range of 5 to 12 fold.
For IRYDMAGC [p4399], the dilution factor of the parental antibody at OD halfmax (1:X) (dilutionfactor(1:x)) in experiment [10] was less than 16000.
In experiment [8], TLHEFRHC [p4715] came in with an OD at 10 ug peptide relative to OD of original peptide (inhibition ELISA) of less than 2 fold. Further, the OD halfmax 1:X (dilution factor of the parental antibody at half-maximal OD) (dilutionfactor(1:x)) in experiment [9] is more than 20000.
For the molecule CSEFKH [p4800], the OD at 10 ug peptide relative to OD of original peptide (inhibition ELISA) in [8] is less than 2 fold. Besides, the OD halfmax 1:X (dilution factor of the parental antibody at half-maximal OD) (dilutionfactor(1:x)) in [9] was more than 20000.
The molecule HEFRHC [p4803] returned an OD at 10 ug peptide relative to OD of original peptide (inhibition ELISA) in experiment [8] of less than 2 fold. For the same molecule, in [9], the OD halfmax 1:X (dilution factor of the parental antibody at half-maximal OD) (dilutionfactor(1:x)) was more than 20000.
Take EVWHRLQC [p4419]: the OD halfmax 1:X (dilution factor of the parental antibody at half-maximal OD) (dilutionfactor(1:x)) in experiment [13] is more than 96000. The molecule further registered an OD at 10 ug peptide as multiple of OD with original peptide in experiment [7] of less than 2 fold.
In experiment [6], EVWHRHC [p4789] displayed an OD at 10 ug peptide as multiple of OD with original peptide of 2 to 5 fold. Moreover, the OD halfmax 1:X (dilution factor of the parental antibody at half-maximal OD) (dilutionfactor(1:x)) in experiment [11] is less than 24000.
Regarding IRYDAPLC [p4397], in [10], the dilution factor of the parental antibody at OD halfmax (1:X) (dilutionfactor(1:x)) was less than 16000. This molecule also returned an OD at 10 ug peptide relative to OD of original peptide (inhibition ELISA) in experiment [12] of 5 to 12 fold.
Take YAEFRGC [Peptide 3005]: the IC50 in [4] and in experiment [5] was more than 0.5 µg/mL in each case.
With IRWDQPC [p4756], the OD at 10 ug peptide relative to OD of original peptide (inhibition ELISA) in [12] was 5 to 12 fold. Moreover, the dilution factor of the parental antibody at OD halfmax (1:X) (dilutionfactor(1:x)) in experiment [14] was more than 60000.
Regarding ERWHEKHC [p4418], the OD halfmax 1:X (dilution factor of the parental antibody at half-maximal OD) (dilutionfactor(1:x)) in experiment [13] was more than 96000. For the same molecule, the OD at 10 ug peptide as multiple of OD with original peptide in experiment [7] was less than 2 fold.
On to ERWHEKC [p4790], for which the OD halfmax 1:X (dilution factor of the parental antibody at half-maximal OD) (dilutionfactor(1:x)) in experiment [11] is less than 24000. In experiment [7], this molecule returned an OD at 10 ug peptide as multiple of OD with original peptide of less than 2 fold.
In [8], CHEFRH [p4802] came in with an OD at 10 ug peptide relative to OD of original peptide (inhibition ELISA) of less than 2 fold. Moreover, the OD halfmax 1:X (dilution factor of the parental antibody at half-maximal OD) (dilutionfactor(1:x)) in experiment [9] is more than 20000.
IRWDGGC [p4793]: the OD at 10 ug peptide relative to OD of original peptide (inhibition ELISA) in experiment [12] was 5 to 12 fold.
EVWHRHQC [p4417] had an OD at 10 ug peptide as multiple of OD with original peptide in [6] of 2 to 5 fold.
